Assay results taken from PMC6098011, “Insights into degradation mechanism of N-end rule substrates by p62/SQSTM1 autophagy adapter” (Nature Communications, 2018).
Primed or numbered codes have the meaning given here. No end group written: not given here. FITC′ = fluorescein isothiocyanate label

Assays:
[1] = biological target: T1, R-BiP peptide (REEEDK–FITC); assay: fluorescence polarisation; FITC-labeled peptide 100 nM, p62 construct titrated 400 nM to 3 mM; 50 mM Tris pH 8.0, 100 mM NaCl, 1 mM DTT; 384-well; details: both partners purified
T1 construct: Arg attached to the new N-terminus of cleaved BiP (N-terminal arginylation, R*); BiP/GRP78 from E19 (E19b-E20b-E21b-D22b printed); also called FITC-labeled R-BiP peptide; FITC-labeled R-BiP/GRP78 peptide
T1 peptide: REEEDK-{FITC′}

[2] = biological target: the molecule itself; assay: SEC-MALS; physiological pH 7.4; buffer not stated
[3] = biological target: the molecule itself; assay: SEC-MALS; 50 mM sodium acetate pH 4.5, 100 mM NaCl, 1 mM TCEP
[4] = biological target: the molecule itself; assay: SEC-MALS; 50 mM Tris pH 8.0, 100 mM NaCl, 1 mM TCEP; 1-3 mg/ml injected; Superdex 200 Increase or Superose 6 Increase

B1: Flag-ZZ (ZZ-domain of p62 with the flag-tag) (domain or fragment)
chain: not shown
[1]
  Kd: > 800 µM

B2: MBP-fused PB1-ZZ of p62 (residues 1-181) wild type (domain or fragment)
chain: not shown
notes: p62/SQSTM1, human, PB1-ZZ residues 1-181; Oligomeric state depends on pH (hexameric or higher at pH 8.0, polymer at pH 6.0, about a trimer at pH 4.5); also called MBP-PB1-ZZ WT; PB1-ZZ WT
[2]
  stoichiometry N: ≥ 10
[3]
  stoichiometry N: ~3
[4]
  stoichiometry N: ≥ 6

B3: MBP-PB1-ZZ K7A (domain or fragment)
chain: not shown
notes: p62/SQSTM1, human, PB1-ZZ residues 1-181; also called monomeric PB1-ZZ mutant
[1]
  fold higher affinity of PB1-ZZ WT than of this mutant: > 10 fold

B4: MBP-PB1-ZZ D69A (domain or fragment)
chain: not shown
notes: as for B3
[1]
  fold higher affinity of PB1-ZZ WT than of this mutant: > 10 fold

B5: MBP-PB1-ZZ D129N (domain or fragment, human, UniProt Q13501 1-181, looked up)
chain: MASLTVKAYLLGKEDAAREIRRFSFCCSPEPEAEAEAAAGPGPCERLLSRVAALFPALRPGGFQAHYRDEDGDLVAFSSDEELTMAMSYVKDDIFRIYIKEKKECRRDHRPPCAQEAPRNMVHPNVICNGCNGPVVGTRYKCSVCPDYDLCSVCEGKGLHRGHTKLAFPSPFGHLSEGFSH
notes: p62/SQSTM1, human, PB1-ZZ residues 1-181
[1]
  fold reduction of affinity against WT: ~30 fold

B6: MBP-PB1-ZZ D147R (domain or fragment, human, UniProt Q13501 1-181, looked up)
chain: MASLTVKAYLLGKEDAAREIRRFSFCCSPEPEAEAEAAAGPGPCERLLSRVAALFPALRPGGFQAHYRDEDGDLVAFSSDEELTMAMSYVKDDIFRIYIKEKKECRRDHRPPCAQEAPRNMVHPNVICDGCNGPVVGTRYKCSVCPRYDLCSVCEGKGLHRGHTKLAFPSPFGHLSEGFSH
notes: as for B5
[1]
  fold reduction of affinity against WT: ~30 fold

B7: MBP-PB1-ZZ N132L (domain or fragment)
chain: not shown
notes: as for B5
[1]
  fold reduction of affinity against WT: ~30 fold

B8: MBP-PB1-ZZ D149R (domain or fragment, human, UniProt Q13501 1-181, looked up)
chain: MASLTVKAYLLGKEDAAREIRRFSFCCSPEPEAEAEAAAGPGPCERLLSRVAALFPALRPGGFQAHYRDEDGDLVAFSSDEELTMAMSYVKDDIFRIYIKEKKECRRDHRPPCAQEAPRNMVHPNVICDGCNGPVVGTRYKCSVCPDYRLCSVCEGKGLHRGHTKLAFPSPFGHLSEGFSH
notes: as for B5
[1]
  fold reduction of affinity against WT: ~30 fold
